Assay results as given in US20060204957A1, “Mta1s, a steriod hormone receptor corepressor” (priority 2002, published 2006).

Experiments:
ER [1] = experiment: GST pull-down assay; assay type: binding; conditions: in vitro translated protein, GST fusion
Method: Incubating equal amounts of GST […] GST-AF2 or GST-AF 1 proteins immobilized to glutathione-sepharose beads with in vitro translated ^35S-labelled MTA1s, protein as described.
Since MTA1s lacked the nuclear signal sequence, the subcellular localization and function of MTA1s was examined. […] The role of MTA1s, in breast cancer cells, was investigated by generating stable clones of ZR-75R cells expressing T7-MTA1s (FIG. 3B). Subcellular fractionation of the ZR-75R cells expressing MTA1s confirmed that T7-MTA1s was in the cytoplasm. To assess the purity of the fractions, immunoblotting with antibodies against the nuclear corepressor PELP1 (Vadlamudi, et al., 2000) and cytosolic paxillin (FIG. 3C) were used. To understand the impact of MTA1s on the status of ER, immunostaining with an anti-ER mAb were used on MCF-7 cells that were transfected with the T7-MTA1s. The expression of T7-MTA1s was accompanied by a significant reduction in the nuclear ER immunoreactivity (FIG. 3D), raising the possibility that MTA1s regulates ER. To confirm the interaction between the MTA1s and endogenous ER, immunoprecipitation of T7-MTA1s with an anti-T7 mAb was used. […] To investigate whether the association between MTA1s and ER was direct or mediated by other proteins, the ability of in vitro-translated ER protein to bind with GST-MTA1s was investigated. […]
Target sequence in this assay (P03372 311-595 limits assumed): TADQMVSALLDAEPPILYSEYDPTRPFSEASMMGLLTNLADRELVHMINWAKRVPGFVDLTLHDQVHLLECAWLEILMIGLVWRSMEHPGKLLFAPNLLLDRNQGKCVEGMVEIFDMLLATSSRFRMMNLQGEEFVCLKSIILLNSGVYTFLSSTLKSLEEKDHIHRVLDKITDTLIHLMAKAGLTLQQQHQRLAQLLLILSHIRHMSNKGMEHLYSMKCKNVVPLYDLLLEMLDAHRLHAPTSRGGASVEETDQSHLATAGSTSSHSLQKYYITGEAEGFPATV

[2] = system: glucocortocoid responsive element (GRE) transcription; experiment: GRE reporter assay, dexamethasone-stimulated, MCF-7 cells; assay type: cell-based, human; conditions: transient expression
Method: (§1) FIGS. 6A-6B. Typical transcriptional repression by MTA1s. FIG. 6A illustrates an example of repression of dexamethasone (10^−9 M)-mediated stimulation of GRE-CAT activity in MCF-7 cells by MTA1s. FIG. 6B illustrates the exemplary repression of progesterone (10^−9 M)-mediated stimulation of PRE-luciferase activity in MCF-7 cells by MTA1s. Cells were cotransfected with β-galactosidase to assess transfection efficiency, and normalized results are presented here.
(§2) Transfection was performed using a Fugene-6 kit (Roche Biochemical, New Jersey) as per the manufacturer's instructions. Cells were transiently cotransfected with a reporter construct and (β-galactosidase, and assayed for luciferase activity as described.

ZR-75R or MCF-7 cells = experiment: Soft-agar anchorage-independent growth assay; assay type: cell-based, human; conditions: stable expression in ZR-75R or MCF-7 cells
Description: (§3) FIGS. 11A-11E. MTA1s may stimulate aggressive phenotypes in breast cancer cells. FIG. 11A illustrates an example of MTA1s overexpression inhibiting PRE-driven but not RARE-driven transcription. FIG. […] illustrates the Growth-rate of ZR/pcDNA or ZR/MTA1s cells in monolayer culture in the presence of E2 alone or with ICI 182780 (10^−9 M for 4 days). FIG. 11C show an exemplary effect of MTA1s expression on anchorage independent growth of ZR/pcDNA and ZR/MTA1s cells grown in 10% serum in the presence or absence of ICI 182780 (10^−9 M) or 4HT (10^−8 M) for 14 days. […] FIG. 11E illustrates that MTA1s may induce tumorigenesis of breast cancer cells. 5×10^6 cells were subcutaneously inoculated in the athymic nude mice (n=10), and tumor volumes at day 21 were recorded.
(§4) Soft agar colony growth assays were performed as described in Mazumdar et al., 2001, herein incorporated by reference. For xenografts studies, 5×10^6 cells were implanted subcutaneously into mammary fat-pad of nude mice and allowed to grow for 21 days and tumor size was measured, as described in Mandal et al., 2001, herein incorporated by reference.

ER [3] = experiment: ERE promoter-reporter assay, estradiol-stimulated, MCF-7 cells; assay type: cell-based, human; conditions: transient expression in MCF-7 cells
Method: as §2
Since MTA1 is a corepressor of ER (Mazumdar, et al., 2001, incorporated herein by reference), the ability of MTA1 cDNAs to repress the transactivating function of ER were investigated.

[4] = system: progesterone responsive element (PRE) transcription; experiment: PRE reporter assay, progesterone-stimulated, MCF-7 cells; assay type: cell-based, human; conditions: transient expression
Method: as §1, §2

[5] = system: pS2, c-Myc and cathepsin-D; experiment: Expression of ER-target genes in ZR-75R cells; assay type: cell-based, human; conditions: ZR-75R/MTA1s cells
Method: FIGS. 5A-5F. MTA1s may impair genomic responses and upregulates the MAP kinase pathway in ZR75R breast cancer cells. […] FIG. 5B illustrates an example of the status of E2 (10^−9 M for 16 h)-induced stimulation of pS2 mRNA. […] Treatment, 5 min. with E2 (10^−9 M) or ICI 182780 (10^−8 M) or both. […] Treatment, 5 min with E2 (10^−9 M) or ICI 182780 (10^−8 M) or both. Relative levels of p42/44Phos are shown underneath.

breast cancer cells = experiment: Tumorigenesis (xenograft) assay in nude mice; assay type: in vivo; conditions: MTA1s expressing cells implanted subcutaneously, 21 days
Description: as §3, §4

ERα = target: T1, ERα (Homo sapiens, UniProt P03372); experiment: Confocal localization of ERα in estradiol-stimulated MCF-7 cells; assay type: cell-based; conditions: estradiol stimulated MCF-7 cells expressing the construct
T1 construct: endogenous in cells; host or cells: MCF-7 cells transfected with T7-MTA1s or MTA1s-del
Method: The cellular localization of T7-MTA1s, and ER was determined using indirect immunofluorescence as described in Mazumdar et al., 2001, herein incorporated by reference. Cells were treated with or without anti-T7 mAb or ER Ab followed by 546-Alexa-labeled goat anti-mouse Ab or 488-Alexa.
Expression of MTA1s-del but not wild type MTA1s was accompanied by the presence of ERα in the nucleus in more than 90% of the cell expressing MTA1s-del. Together, these findings indicated a pivotal role of LRILL motif in the cytoplasmic sequestration of ERα.

T1 sequence (P03372 whole entry): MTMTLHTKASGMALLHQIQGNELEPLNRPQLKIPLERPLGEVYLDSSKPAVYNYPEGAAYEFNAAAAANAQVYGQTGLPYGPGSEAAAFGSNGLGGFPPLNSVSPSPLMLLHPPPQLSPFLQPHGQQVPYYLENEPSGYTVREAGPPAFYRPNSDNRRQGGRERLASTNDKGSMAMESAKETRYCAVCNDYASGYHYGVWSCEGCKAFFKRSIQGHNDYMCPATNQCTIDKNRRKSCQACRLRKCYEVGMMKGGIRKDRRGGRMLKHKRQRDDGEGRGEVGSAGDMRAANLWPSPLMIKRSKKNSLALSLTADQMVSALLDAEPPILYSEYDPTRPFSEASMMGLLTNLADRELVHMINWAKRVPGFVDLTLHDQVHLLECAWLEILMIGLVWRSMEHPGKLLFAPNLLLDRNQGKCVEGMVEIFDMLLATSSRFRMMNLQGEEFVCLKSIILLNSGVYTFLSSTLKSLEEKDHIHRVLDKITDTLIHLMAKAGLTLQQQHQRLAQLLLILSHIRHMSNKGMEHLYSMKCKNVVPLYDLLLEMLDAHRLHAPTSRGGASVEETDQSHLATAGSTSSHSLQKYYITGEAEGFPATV

B1: MTA1s: novel 430 amino acid protein from an alternatively spliced MTA1 transcript, with unique 33 amino acid C-terminus (SEQ ID NO:2) (protein, listed as Homo sapiens)
chain: MAANMYRVGDYVYFENSSSNPYLIRRIEELNKTANGNVEAKVVCFYRRRDISSTLIALADKHATLSVCYKAGPGADNGEEGEIEEEMENPEMVDLPEKLKHQLRHRELFLSRQLESLPATHIRGKCSVTLLNETESLKSYLEREDFFFYSLVYDPQQKTLLADKGEIRVGNRYQADITDLLKEGEEDGRDQSRLETQVWEAHNPLTDKQIDQFLVVARSVGTFARALDCSSSVRQPSLHMSAAAASRDITLFHAMDTLHKNIYDISKAISALVPQGGPVLCRDEMEEWSASEANLFEEALEKYGKDFTDIQQDFLPWKSLTSIIEYYYMWKTTDRYVQQKRLKAAEAESKLKQVYIPNYNKPNPNQISVNNVKAGVVNGTGAPGQSPGAGRACESCYMSSLRILLDILEEIWWLENANPVRWREARTKPQ
binding to ER in GST pull-down (ER [1]): interacted with the GST-ER but not with GST alone
repression of GRE transcription stimulated by dexamethasone [2]: blocked the stimulation
anchorage-independent growth in soft agar (ZR-75R or MCF-7 cells): significantly enhanced
repression of estradiol's ability to stimulate ERE transcription (ER [3]): effectively blocked
repression of PRE transcription stimulated by progesterone [4]: blocked the stimulation
expression of ER-target genes pS2, c-Myc and cathepsin-D [5]: significantly reduced expression
tumorigenicity in nude mice (breast cancer cells): more tumorigenic

B2: MTA1s-stop: MTA1s mutant made by adding a stop codon and deleting the entire 33 amino acids (protein)
chain: MAANMYRVGDYVYFENSSSNPYLIRRIEELNKTANGNVEAKVVCFYRRRDISSTLIALADKHATLSVCYKAGPGADNGEEGEIEEEMENPEMVDLPEKLKHQLRHRELFLSRQLESLPATHIRGKCSVTLLNETESLKSYLEREDFFFYSLVYDPQQKTLLADKGEIRVGNRYQADITDLLKEGEEDGRDQSRLETQVWEAHNPLTDKQIDQFLVVARSVGTFARALDCSSSVRQPSLHMSAAAASRDITLFHAMDTLHKNIYDISKAISALVPQGGPVLCRDEMEEWSASEANLFEEALEKYGKDFTDIQQDFLPWKSLTSIIEYYYMWKTTDRYVQQKRLKAAEAESKLKQVYIPNYNKPNPNQISVNNVKAGVVNGTGAPGQSPGAGRACESCY
repression of estradiol's ability to stimulate ERE transcription (ER [3]): did not result in a significant suppression

B3: MTA1s-del: MTA1s mutant made by deleting the LRILL motif (protein)
chain: MAANMYRVGDYVYFENSSSNPYLIRRIEELNKTANGNVEAKVVCFYRRRDISSTLIALADKHATLSVCYKAGPGADNGEEGEIEEEMENPEMVDLPEKLKHQLRHRELFLSRQLESLPATHIRGKCSVTLLNETESLKSYLEREDFFFYSLVYDPQQKTLLADKGEIRVGNRYQADITDLLKEGEEDGRDQSRLETQVWEAHNPLTDKQIDQFLVVARSVGTFARALDCSSSVRQPSLHMSAAAASRDITLFHAMDTLHKNIYDISKAISALVPQGGPVLCRDEMEEWSASEANLFEEALEKYGKDFTDIQQDFLPWKSLTSIIEYYYMWKTTDRYVQQKRLKAAEAESKLKQVYIPNYNKPNPNQISVNNVKAGVVNGTGAPGQSPGAGRACESCYMSSDILEEIWWLENANPVRWREARTKPQ
cells with ERα present in the nucleus (ERα): more than 90%
repression of estradiol's ability to stimulate ERE transcription (ER [3]): did not result in a significant suppression

B4: full-length MTA1: 715 amino acid metastasis-associated protein, corepressor of nuclear Estrogen Receptor α (protein, UniProt Q13330 1-715, looked up)
chain: MAANMYRVGDYVYFENSSSNPYLIRRIEELNKTANGNVEAKVVCFYRRRDISSTLIALADKHATLSVCYKAGPGADNGEEGEIEEEMENPEMVDLPEKLKHQLRHRELFLSRQLESLPATHIRGKCSVTLLNETESLKSYLEREDFFFYSLVYDPQQKTLLADKGEIRVGNRYQADITDLLKEGEEDGRDQSRLETQVWEAHNPLTDKQIDQFLVVARSVGTFARALDCSSSVRQPSLHMSAAAASRDITLFHAMDTLHKNIYDISKAISALVPQGGPVLCRDEMEEWSASEANLFEEALEKYGKDFTDIQQDFLPWKSLTSIIEYYYMWKTTDRYVQQKRLKAAEAESKLKQVYIPNYNKPNPNQISVNNVKAGVVNGTGAPGQSPGAGRACESCYTTQSYQWYSWGPPNMQCRLCASCWTYWKKYGGLKMPTRLDGERPGPNRSNMSPHGLPARSSGSPKFAMKTRQAFYLHTTKLTRIARRLCREILRPWHAARHPYLPINSAAIKAECTARLPEASQSPLVLKQAVRKPLEAVLRYLETHPRPPKPDPVKSVSSVLSSLTPAKVAPVINNGSPTILGKRSYEQHNGVDGNMKKRLLMPSRGLANHGQARHMGPSRNLLLNGKSYPTKVRLIRGGSLPPVKRRRMNWIDAPDDVFYMATEETRKIRKLLSSSETKRAARRPYKPIALRQSQALPPRPPPPAPVNDEPIVIED
modifications: full-length
notes: 715 amino acid metastasis-associated protein, corepressor of nuclear Estrogen Receptor α
repression of estradiol's ability to stimulate ERE transcription (ER [3]): effectively blocked
